{"source": "paper PMC4338441", "about": "“Non-catalytic motor domains enable processive movement and functional diversification of the kinesin-14 Kar3” (eLife, 2015)", "binders": {"B1": {"name": "Cik1-1xFLAG (full-length Cik1, aa 1–594) (natural protein, S. cerevisiae (S288c), UniProt Q01649 1-594, looked up)", "chain": "MNNSKIPKLSFHSDPNNVTRDFPKTKRQKVQKREMDMILTPNNNKLNILHSSGSGIRRCYTDDTSATYTKKLTFGGDPKIIERVKNNERKVRKDIDSLLNAISEIEKESVRIHARELPAITLELDAKVKACRELQNEIDGLSTEMDLKDNQCDLQRKNVELSSKNIVSMHAVKVQEFENDLEEELSNAKREWTYKLMEVENLKPDERLTDEMRQLKTEFEEVNRKLFILQNENENECKNYKKELDKKFEIFKKVKNDARIELDGEQERLSKVLKDLQDTHGELKENIKTCRDEFNDFEKRIGEAEVNFHSMELAVVPLKKKLASTSQALTQVQEEKKQVEGEANNWKKKYVNELEKVQQELYTRQNLATSIEEIKGYTRCFAYANERQMPDEFHINYVDRCICENSGEKRVQVFDRVVLEEIHKDHKRLYNECIPFLEKYISKLINCSIIVVSQQPTAPMKKTLLKQLIEQYGENYKMTLNILHLDGSIKHSDVGLDNPTEIRDLSQDEECMNILTLDTKLGKDEESHSMNIYIGSMSTVQLNRELDDAPSVLSHILTKTKQCFVFKINAGENIEKALALAGKLKRTITLPQLD", "notes": "source: if needed MonoS; not shown: 1xFLAG, C-terminal, kept"}, "B2": {"name": "GST-Bim1^FL (natural protein, budding yeast, UniProt P40013 1-344, looked up)", "chain": "MSAGIGESRTELLTWLNGLLNLNYKKIEECGTGAAYCQIMDSIYGDLPMNRVKFNATAEYEFQTNYKILQSCFSRHGIEKTVYVDKLIRCKFQDNLEFLQWLKKHWIRHKDESVYDPDARRKYRPIITNNSATKPRTVSNPTTAKRSSSTGTGSAMSGGLATRHSSLGINGSRKTSVTQGQLVAIQAELTKSQETIGSLNEEIEQYKGTVSTLEIEREFYFNKLRDIEILVHTTQDLINEGVYKFNDETITGHGNGNGGALLRFVKKVESILYATAEGFEMNDGEDELNDKNLGEHGTVPNQGGYANSNGEVNGNEGSNHDVIMQNDEGEVGVSNNLIIDEETF", "notes": "Bim1, the EB1 homologue of budding yeast, full length; also called full-length Bim1; source: recombinant; expressed and purified as described previously (Zimniak et al., 2009)"}, "B3": {"name": "Bim1 (as used in analytical size exclusion chromatography) (natural protein, budding yeast, UniProt P40013 1-344, looked up)", "chain": "B2 chain", "notes": "Bim1, the EB1 homologue of budding yeast; source: recombinant; expressed and purified as described previously (Zimniak et al., 2009)"}, "B4": {"name": "GST-Bim1^185–344 (domain or fragment, budding yeast, UniProt P40013 185-344, looked up)", "chain": "IQAELTKSQETIGSLNEEIEQYKGTVSTLEIEREFYFNKLRDIEILVHTTQDLINEGVYKFNDETITGHGNGNGGALLRFVKKVESILYATAEGFEMNDGEDELNDKNLGEHGTVPNQGGYANSNGEVNGNEGSNHDVIMQNDEGEVGVSNNLIIDEETF", "notes": "also called C-terminal EB homology domain of Bim1; source: recombinant; expressed and purified as described previously (Zimniak et al., 2009)"}, "B5": {"name": "Cik1–Kar3 heterodimer (full-length Cik1-1xFLAG with Halo-Kar3) (complex, S. cerevisiae (S288c))", "chain 1": "MESLPRTPTKGRSTQHLSTPSPKNDILAMNGHKRRNTTTPPPKHTLLKPQRTDIHRHSLASQSRISMSPNRELLKNYKGTANLIYGNQKSNSGVTSFYKENVNELNRTQAILFEKKATLDLLKDELTETKEKINAVNLKFETLREEKIKIEQQLNLKNNELISIKEEFLSKKQFMNEGHEIHLKQLAASNKKELKQMENEYKTKIEKLKFMKIKQFENERASLLDKIEEVRNKITMNPSTLQEMLNDVEQKHMLEKEEWLTEYQSQWKKDIELNNKHMQEIESIKKEIENTLKPELAEKKKLLTEKRNAYEAIKVKVKEKEEETTRLRDEVALKQKTNLETLEKIKELEEYIKDTELGMKELNEILIKEETVRRTLHNELQELRGNIRVYCRIRPALKNLENSDTSLINVNEFDDNSGVQSMEVTKIQNTAQVHEFKFDKIFDQQDTNVDVFKEVGQLVQSSLDGYNVCIFAYGQTGSGKTFTMLNPGDGIIPSTISHIFNWINKLKTKGWDYKVNCEFIEIYNENIVDLLRSDNNNKEDTSIGLKHEIRHDQETKTTTITNVTSCKLESEEMVEIILKKANKLRSTASTASNEHSSRSHSIFIIHLSGSNAKTGAHSYGTLNLVDLAGSERINVSQVVGDRLRETQNINKSLSCLGDVIHALGQPDSTKRHIPFRNSKLTYLLQYSLTGDSKTLMFVNISPSSSHINETLNSLRFASKVNSTRLVSRK", "chain 2": "B1 chain", "modifications": "HaloTag TMR ligand or HaloTag Alexa488 ligand covalently bound to the HaloTag (imaging experiments)", "notes": "also called Cik1–Kar3-Halo; Cik1–Halo–Kar3; source: if needed MonoS; not shown: HaloTag, N-terminal, kept"}}, "key": {"[1]": {"target": "T1, Halo-Kar3 (full-length Kar3 fused to a HaloTag) (S. cerevisiae (S288c), UniProt P17119 1-729, HaloTag TMR ligand (tetramethylrhodamine) or HaloTag Alexa488 ligand covalently bound to the HaloTag)", "T1 construct": "methods and legends say amino-terminal; also called Kar3-Halo; Kar3-HALO; not shown: HaloTag, N-terminal, kept", "T1 sequence (looked up)": "B5 chain 1", "test": "co-IP; two subunits co-overexpressed in S. cerevisiae; FLAG-tagged subunit bound to M2 anti-FLAG affinity agarose (lysis buffer 300 mM NaCl, washes 150 mM NaCl), HaloTag labelled on the resin, eluted with 3xFLAG peptide; Coomassie SDS-PAGE and fluorescence of the Halo-Kar3 subunit", "settings": "partners not purified"}, "[2]": {"target": "B5", "test": "pull-down; 0.1–1 μM GST-tagged bait immobilised on glutathione sepharose; binding partner at a constant 0.5–1 μM; 25 mM Hepes pH 7.2, 250 mM NaCl, 1 mM MgCl2, 1 mM EGTA, 0.5 mM DTT, 0.05% NP-40; 1 hr at 4°C; SDS-PAGE, Coomassie", "settings": "both partners purified"}, "[3]": {"target": "B5", "test": "SEC; analytical size exclusion chromatography of Cik1–Kar3 and Bim1 individually or in combination", "settings": "both partners purified"}, "[4]": {"target": "T2, recombinant full-length Ndc80 complex (Ndc80p-6xHis/Nuf2p-EGFP and Spc24p/6xHis/Spc25p) (UniProt P40460 1-691; P33895 1-451; Q04477 1-213; P40014 1-221)", "T2 construct": "Ndc80p, budding yeast; Nuf2p, budding yeast; Spc24p, budding yeast; Spc25p, budding yeast; also called Ndc80-eGFP complex; Ndc80 kinetochore complex; source: recombinant; expression and purification as described previously (Lampert et al., 2013; Lampert et al., 2010); copies: + + +", "T2 sequence (P40460 whole entry, chain 1 of 4)": "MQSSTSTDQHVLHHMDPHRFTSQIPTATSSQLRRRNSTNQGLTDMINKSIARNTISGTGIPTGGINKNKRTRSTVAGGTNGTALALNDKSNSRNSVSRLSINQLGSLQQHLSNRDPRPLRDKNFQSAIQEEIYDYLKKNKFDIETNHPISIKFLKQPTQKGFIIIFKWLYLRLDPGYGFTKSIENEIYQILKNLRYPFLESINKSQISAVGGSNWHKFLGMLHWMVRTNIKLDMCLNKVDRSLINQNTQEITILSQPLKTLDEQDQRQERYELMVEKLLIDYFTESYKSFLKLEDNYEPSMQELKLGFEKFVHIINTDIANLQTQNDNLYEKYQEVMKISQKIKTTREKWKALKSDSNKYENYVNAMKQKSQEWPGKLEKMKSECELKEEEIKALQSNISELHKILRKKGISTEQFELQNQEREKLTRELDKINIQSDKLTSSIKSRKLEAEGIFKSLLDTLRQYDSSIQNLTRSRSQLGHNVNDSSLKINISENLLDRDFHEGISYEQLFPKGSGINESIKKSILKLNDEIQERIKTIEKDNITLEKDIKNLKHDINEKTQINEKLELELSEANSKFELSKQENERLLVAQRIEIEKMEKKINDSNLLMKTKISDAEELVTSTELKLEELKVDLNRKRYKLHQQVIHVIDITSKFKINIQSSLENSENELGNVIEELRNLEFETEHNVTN", "T2 sequence (P33895 whole entry, chain 2 of 4)": "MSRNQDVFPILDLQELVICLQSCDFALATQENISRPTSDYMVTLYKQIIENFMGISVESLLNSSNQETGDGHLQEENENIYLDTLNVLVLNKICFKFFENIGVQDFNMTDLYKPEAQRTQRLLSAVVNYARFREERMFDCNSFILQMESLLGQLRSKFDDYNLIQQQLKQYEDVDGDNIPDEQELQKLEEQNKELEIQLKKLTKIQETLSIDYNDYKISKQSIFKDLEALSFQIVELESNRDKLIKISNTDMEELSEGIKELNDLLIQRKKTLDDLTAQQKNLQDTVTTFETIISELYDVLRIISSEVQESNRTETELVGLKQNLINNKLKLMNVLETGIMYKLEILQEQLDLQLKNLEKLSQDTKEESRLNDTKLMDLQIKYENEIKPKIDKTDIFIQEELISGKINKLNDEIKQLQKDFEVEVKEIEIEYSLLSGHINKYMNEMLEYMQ", "T2 sequence (Q04477 whole entry, chain 3 of 4)": "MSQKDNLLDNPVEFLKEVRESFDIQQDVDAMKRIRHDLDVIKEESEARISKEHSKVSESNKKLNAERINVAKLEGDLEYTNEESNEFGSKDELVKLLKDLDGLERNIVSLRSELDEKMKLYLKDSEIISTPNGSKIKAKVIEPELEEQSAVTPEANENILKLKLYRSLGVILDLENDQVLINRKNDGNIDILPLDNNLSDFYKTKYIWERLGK", "T2 sequence (P40014 whole entry, chain 4 of 4)": "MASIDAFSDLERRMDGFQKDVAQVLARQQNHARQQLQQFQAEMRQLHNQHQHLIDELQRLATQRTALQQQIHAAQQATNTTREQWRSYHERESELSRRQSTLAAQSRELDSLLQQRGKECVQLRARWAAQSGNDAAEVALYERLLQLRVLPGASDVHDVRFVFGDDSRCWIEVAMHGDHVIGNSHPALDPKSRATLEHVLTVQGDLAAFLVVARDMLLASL", "test": "in vitro recruitment to microtubules (TIRF microscopy); bulk recruitment assay in the absence of nucleotide; TMR-labeled Kar3 motors and fluorescently labeled recombinant Ndc80 complex on surface-immobilised taxol-stabilized microtubules", "settings": "both partners purified"}}}
{"binder": "B1", "values": [{"measurement": "binding result", "setting": "[1]", "result": "binds"}]}
{"binder": "B2", "values": [{"measurement": "binding result", "setting": "[2]", "result": "binds"}]}
{"binder": "B3", "values": [{"measurement": "binding result", "setting": "[3]", "result": "binds"}]}
{"binder": "B4", "values": [{"measurement": "binding result", "setting": "[2]", "result": "binds"}]}
{"binder": "B5", "values": [{"measurement": "binding result", "setting": "[4]", "result": "binds"}]}
